Test results reported in US20230340143A1 (published 2023).

T1: human CD39 expressed at the cell surface (human, UniProt P49961 1-510)
T1 construct: On CHO transfectants, HEK-293T transfectants or endogenous on Ramos cells; also called huCD39; CHO-huCD39
T1 sequence: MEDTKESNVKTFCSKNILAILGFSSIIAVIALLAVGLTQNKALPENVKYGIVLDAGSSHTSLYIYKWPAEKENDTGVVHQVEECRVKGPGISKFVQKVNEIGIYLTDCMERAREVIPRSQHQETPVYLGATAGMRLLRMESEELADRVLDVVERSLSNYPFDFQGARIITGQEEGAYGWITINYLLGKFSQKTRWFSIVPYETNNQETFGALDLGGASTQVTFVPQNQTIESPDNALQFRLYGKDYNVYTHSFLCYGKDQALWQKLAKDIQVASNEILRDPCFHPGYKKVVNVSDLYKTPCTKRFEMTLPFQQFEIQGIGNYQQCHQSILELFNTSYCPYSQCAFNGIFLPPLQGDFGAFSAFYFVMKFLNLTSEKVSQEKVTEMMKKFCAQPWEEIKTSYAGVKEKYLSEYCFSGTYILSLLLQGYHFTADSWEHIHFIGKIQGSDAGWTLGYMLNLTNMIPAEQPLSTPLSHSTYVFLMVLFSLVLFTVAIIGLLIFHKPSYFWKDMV

T2: CD39 mutant 5 (human, UniProt P49961 1-510)
T2 construct: Expressed on transfected HEK-293T cells; also called M5
T2 chain: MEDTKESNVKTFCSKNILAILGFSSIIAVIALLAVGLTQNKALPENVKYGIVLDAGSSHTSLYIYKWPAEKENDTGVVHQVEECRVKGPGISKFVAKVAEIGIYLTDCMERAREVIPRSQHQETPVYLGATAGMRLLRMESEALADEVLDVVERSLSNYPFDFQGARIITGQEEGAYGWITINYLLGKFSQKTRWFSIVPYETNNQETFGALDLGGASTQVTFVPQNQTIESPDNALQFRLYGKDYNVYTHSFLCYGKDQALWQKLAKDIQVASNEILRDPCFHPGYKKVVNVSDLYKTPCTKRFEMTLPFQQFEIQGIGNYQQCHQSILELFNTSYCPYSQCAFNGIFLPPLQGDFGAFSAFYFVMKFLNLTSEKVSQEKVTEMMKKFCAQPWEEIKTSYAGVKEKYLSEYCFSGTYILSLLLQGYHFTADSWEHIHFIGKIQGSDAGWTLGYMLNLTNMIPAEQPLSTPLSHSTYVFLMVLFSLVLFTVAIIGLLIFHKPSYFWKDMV

T3: CD39 mutant 19 (human, UniProt P49961 1-510)
T3 construct: Expressed on transfected HEK-293T cells; also called M19
T3 chain: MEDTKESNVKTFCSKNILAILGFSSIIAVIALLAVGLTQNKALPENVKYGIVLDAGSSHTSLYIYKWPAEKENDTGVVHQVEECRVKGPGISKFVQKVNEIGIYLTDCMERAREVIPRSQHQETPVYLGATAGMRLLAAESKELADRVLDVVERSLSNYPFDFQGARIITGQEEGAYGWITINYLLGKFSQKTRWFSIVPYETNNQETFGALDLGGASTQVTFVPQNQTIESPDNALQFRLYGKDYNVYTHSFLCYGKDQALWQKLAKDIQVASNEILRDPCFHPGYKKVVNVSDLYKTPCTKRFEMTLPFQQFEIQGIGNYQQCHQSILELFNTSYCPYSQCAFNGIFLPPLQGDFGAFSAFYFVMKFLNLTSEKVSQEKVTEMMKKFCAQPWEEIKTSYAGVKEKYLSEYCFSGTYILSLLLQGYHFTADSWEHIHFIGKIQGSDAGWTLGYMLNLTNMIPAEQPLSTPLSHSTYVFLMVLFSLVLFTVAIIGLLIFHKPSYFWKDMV

T4: Human CD39-L1 (human, UniProt Q9Y5L3 1-495)
T4 construct: Recombinant protein coated in ELISA; also called NTPDase2; ENTPD2
T4 sequence: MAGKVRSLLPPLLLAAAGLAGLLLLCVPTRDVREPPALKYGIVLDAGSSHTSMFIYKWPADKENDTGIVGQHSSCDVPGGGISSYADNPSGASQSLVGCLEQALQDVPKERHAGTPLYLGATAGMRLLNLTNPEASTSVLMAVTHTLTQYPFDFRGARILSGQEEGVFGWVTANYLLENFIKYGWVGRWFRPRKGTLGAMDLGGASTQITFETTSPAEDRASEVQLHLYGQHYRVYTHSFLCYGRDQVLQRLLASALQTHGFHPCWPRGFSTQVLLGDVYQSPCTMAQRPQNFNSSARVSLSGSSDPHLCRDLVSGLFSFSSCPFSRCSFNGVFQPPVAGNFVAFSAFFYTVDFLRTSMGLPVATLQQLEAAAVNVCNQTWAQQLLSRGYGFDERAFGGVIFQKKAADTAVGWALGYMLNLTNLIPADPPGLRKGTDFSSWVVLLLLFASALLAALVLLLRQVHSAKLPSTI


Experiments:
[1] = target: T1, human CD39 expressed at the cell surface; assay: flow cytometry screen on CHO expressing huCD39 against wild type CHO
Description: In initial immunization protocols, the primary screen involved testing supernatant (SN) of growing clones by flow cytometry using wild type CHO and CHO expressing huCD39 cell lines. Cells were stained with 0.1 µM and 0.005 µM CFSE, respectively. […] For antibodies that bound huCD39, supernatants were then screened for inhibition of the enzymatic activity of soluble CD39 using the screening assay developed and described above (Methods).
In view of the absence of antibodies able to inhibit soluble CD39, a further immunization was carried out with a screening protocol designed to favor the generation of antibodies that bind the active site of CD39 as identified by the epitope of antibody BY40. Briefly, the primary screen involved testing supernatant (SN) of growing clones by flow cytometry using wild type CHO and CHO expressing huCD39 cell lines, as in the preceding immunizations, followed by screening for loss of binding Hek-293T cells expressing CD39 mutant 5, compared to wild-type CD39, as shown in Table 1. Mutant 5 has substitutions at residues Q96, N99, E143 and R147.

CD39 mutant 5 [2] = target: T2, CD39 mutant 5; assay: flow cytometry on HEK-293T cells expressing mutant 5
Description: (§1) In order to define the epitopes of the further anti-CD39 antibodies of Example 5, they were tested for loss of binding to the panel of CD39 mutants as described in Example 1 and Table 1. Mutants were transfected in Hek-293T cells, as shown in the table 1, using numbering of SEQ ID NO: 1.Dose-ranges of test antibodies (10 - 2.5 - 0.625 - 0.1563 - 0.0391 - 0.0098 - 0.0024 - 0.0006 µg/ml) are tested on the 20 generated mutants by flow cytometry.

CD39 mutant 19 = target: T3, CD39 mutant 19; assay: flow cytometry on HEK-293T cells expressing mutant 19
Description: as §1

CD39 mutant 5 [3] = target: T2, CD39 mutant 5; assay: flow cytometry screen on HEK-293T cells expressing CD39 mutant 5
Human CD39-L1 = target: T4, Human CD39-L1; assay: ELISA, recombinant isoform coated
Description: Wells were washed in TBS Tween 20, and further saturated 2H at RT in TBS Blocking buffer. Dose range concentration of primary antibody was incubated in TBS blocking buffer for 2 h at RT. Wells were washed in TBS Tween 20. […] Optical density was measured on Enspire™ at OD=450.

Binder | binding result [1] | binding result (CD39 mutant 5 [2]) | binding result (CD39 mutant 19) | binding result (CD39 mutant 5 [3]) | binding result (Human CD39-L1)
antibody I-399 (antibody, V domains shown, Hybridoma antibody purified on protein A) VH: PVQLQQPGAEVVMPGASVKLSCKASGYTFTSFWMNWMRQRPGQGLEWIGEIDPSDFYTNSNQRFKGKATLTVDKSSSTAYMQLSSLTSEDSAVYFCARGDFGWYFDVWGTGTSVTVSS VL: EIVLTQSPTTMTSSPGEKITFTCSASSSINSNYLHWYQQKPGFSPKLLIYRTSNLASGVPTRFSGSGSGTSYSLTIGTMEAEDVATYYCQQGSSLPRTFGGGTKLEIK | binds | – | – | – | –
antibody I-396 (antibody, V domains shown, Hybridoma antibody purified on protein A) VH: EVQLQQSGAELVKPGASVKLSCIVSGFNIKDTYINWVKQRPEQGLEWIGRIDPANGNTKYDPKFQGKATMTSDTSSNTAYLHLSSLTSDDSAVYYCARWGYDDEEADYFDSWGQGTTLTVSS VL: not shown | binds | binds | binds | – | –
antibody I-395 (antibody, V domains shown, Hybridoma antibody purified on protein A) VH: EVQLQQSGPELVKPGASVRMSCKASGYTFTDYNMHWVKKNHGKGLEWIGYINPNNGGTTYNQKFKGKATLTVNTSSKTAYMELRSLTSEDSAVYYCTRGGTRFASWGQGTLVTVSA VL: not shown | binds | – | – | – | –
antibody I-394 (antibody, V domains shown, Mouse hybridoma antibody; also produced with human IgG1 constant domains carrying L234A/L235E/G237A/A330S/P331S (Kabat EU) and a huCk constant domain) VH: EVQLQQSGPELVKPGASVKMSCKASGYTFTDYNMHWVKQSHGRTLEWIGYIVPLNGGSTFNQKFKGRATLTVNTSSRTAYMELRSLTSEDSAAYYCARGGTRFAYWGQGTLVTVSA VL: not shown | – | – | – | binds | no binding
